Results on one molecule are retold here after patent publication US20260327306 (published 2026).

This test addresses T1, Human NKp30 (BKM0179) (human, UniProt O14931).
T1 chain: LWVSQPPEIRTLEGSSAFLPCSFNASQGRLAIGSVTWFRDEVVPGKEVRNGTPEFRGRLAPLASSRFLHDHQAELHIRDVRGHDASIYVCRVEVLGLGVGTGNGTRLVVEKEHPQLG

B1: BKM0138 (BJM0411 VL-N95A) (antibody, V domains shown)
VH: EIQLLESGGGLVQPGGSLRLSCAVSGFSITTTGYHWNWVRQAPGKGLEWVGYIYSSGSTSYNPSLKSRFTISRDTSKNTFYLQMNSLRAEDTAVYYCARGDWHYFDYWGQGTMVTVSS
VL: DSVTTQSPLSLPVTLGQPASISCSGEKLSDKYVHWYQQRPGQSPRMLIYENDRRPSGVPDRFSGSNSGNDATLKVEAEDVGVYFCQFWDSTASAVFGGGTKVEIKI
For the molecule B1, the Kd (as a rule, a measure of binding affinity in units of concentration) was found to be 3.2 nM.
